# B1: TNT50a: "an anti-mouse CD22 antibody (SEQ ID NO: 124 and SEQ ID NO: 125) conjugated to mouse CpG 4523 (SEQ ID NO: 121) of DAR1 configuration" (conjugate, listed as Mus musculus)
# chain 1: QVQLQQPGAEIVRPGTSVKLSCKASGYTFTDYWMNWVKQRPGQGLEWFGAIDPSDSYTRYNQEFKGKATLTVDTSSTTAYMQLSSLTSEDSAVYFCARSDYTYSFYFDYWGLGTTLTVSS
# chain 2: DIVMTQAAFSNPVTLGTSASISCRSSKSLLHSNGITYLYWYLQKPGQSPQLLIYQMSNLASGVPDRFSSSGSGTDFTLRISRVEAEDVGVYYCAQNLELPWTFGGGTKLEIK
# DNA: tucgtcgtgacgtt
# modifications: antibody-CpG conjugate, DAR1
# B2: CD22 Ab-CpG conjugate: "anti-mouse CD22 antibody (SEQ ID NO: 124 and SEQ ID NO: 125) conjugated to mouse CpG 4523 (SEQ ID NO: 121) with a DAR1 configuration" (conjugate, listed as Mus musculus)
# chain 1: QVQLQQPGAEIVRPGTSVKLSCKASGYTFTDYWMNWVKQRPGQGLEWFGAIDPSDSYTRYNQEFKGKATLTVDTSSTTAYMQLSSLTSEDSAVYFCARSDYTYSFYFDYWGLGTTLTVSS
# chain 2: DIVMTQAAFSNPVTLGTSASISCRSSKSLLHSNGITYLYWYLQKPGQSPQLLIYQMSNLASGVPDRFSSSGSGTDFTLRISRVEAEDVGVYYCAQNLELPWTFGGGTKLEIK
# DNA: tucgtcgtgacgtt
# modifications: antibody-CpG conjugate, DAR1
# Assays:
# [1] = system: CT26 mouse colon carcinoma cells; test: CT26 model, anti-PD1 non-responders; type: in vivo, BALB/c mice; settings: conjugate intravenously 2 doses every 3 days at 10 mg/kg; anti-PD1 intraperitoneal 10 mg/kg
# Procedure: 100 uL of suspended cells were subcutaneously implanted into the right flank of 6 week old female BALB/c mice (Charles River).
# [2] = system: EMT6 mouse mammary carcinoma cells; test: EMT6 breast cancer model (checkpoint inhibitor refractory), intraperitoneal dosing; type: in vivo, BALB/c mice; settings: intraperitoneally 2 doses every 3, 5 or 7 days at 10 mg/kg
# Procedure: EMT6 mouse mammary carcinoma cells (ATCC) were cultured in Complete RPMI 1640 (RPMI1640+10% FBS (Gibco)) at 37° C. and 5% CO2. Cells were detached with Trypsin 0.25% (Gibco) and washed twice with RPMI 1640 (Gibco). Cells were resuspended at 20E6/mL in RPMI 1640 and kept on ice until use. 100 uL of suspended cells were subcutaneously implanted into the right flank of 6 week old female BALB/c mice (Charles River). Tumor size was measured and recorded twice a week with calipers starting 3 days post implantation until duration of the study, approximately 35 days later. Tumor volume was calculated using the following formula: (length×width×width)/2. Once tumors reached on average 75 mm^3, approximately 3 days post implantation, mice were randomized by tumor size and treatments were initiated. […] TNT50a conjugates were administered intraperitoneally 2 doses every 3, 5 or 7 days at 10 mg/kg.
# spleens and tumors = test: Immunophenotyping of spleen and tumor in syngeneic models (A20, CT26, EMT6); type: in vivo, BALB/c mice; settings: 1 or 2 doses intraperitoneally every 3 days at 10 mg/kg
# Procedure: Immunophenotyping of multiple syngeneic models administered with TNT50a were conducted. […] A20 B cell lymphoma, CT26 colon carcinoma, EMT6 mouse mammary carcinoma cells (ATCC) were cultured in Complete RPMI 1640 (RPMI1640+10% FBS (Gibco)) at 37° C. and 5% CO2. Cells were detached with Trypsin 0.25% (Gibco) and washed twice with RPMI 1640 (Gibco). Cells were resuspended at 20E6/mL in RPMI 1640 and kept on ice until use. 100 uL of suspended cells were subcutaneously implanted into the right flank of 6 week old female BALB/c mice (Charles River). Tumor size was measured with calipers. Tumor volume was calculated using the following formula: (length×width×width)/2. Once tumors reached on average 200-300 mm^3, mice were randomized by tumor size and treatments were initiated. The conjugates were administered 1 or 2 doses intraperitoneally every 3 days at 10 mg/kg.
# Spleens and tumors were harvested either two or three days post-last injection for immunophenotyping. Spleens were processed into single-cell suspension in ice-cold PBS, lysed with ACK lysis buffer (Gibco), washed twice and re-suspended in PBS supplemented with 2% FBS. Tumor-derived single-cell suspensions were prepared using a cocktail of Collagenase A (Roche), Collagenase D (Roche) and DNAse (Roche) for 45 min at 37° C. […]
# 4T1 cells = test: 4T1 lung metastatic burden; type: in vivo, BALB/C mice; settings: 10 mg/kg, 3 doses every 3 days; compared to the control
# [3] = system: EMT6 mouse mammary carcinoma cells; test: EMT6 breast cancer model, intratumoral administration; type: in vivo, BALB/c mice; settings: intratumorally 2 doses every 3 days at 24 uM
# Procedure: 100 uL of suspended cells were subcutaneously implanted into the right flank of 6 week old female BALB/c mice (Charles River). Tumor size was measured and recorded twice a week with calipers starting 7 days post implantation until duration of the study, approximately 25 days later. Tumor volume was calculated using the following formula: (length×width×width)/2. Once tumors reached on average 180 mm^3, approximately 7 days post implantation, mice were randomized by tumor size and treatments were initiated.
Molecule,tumor volume in anti-PD1 non responders [1],anti-tumor efficacy [2],immune cell changes in spleen and tumor (spleens and tumors),number of metastatic plaques (4T1 cells),anti-tumor potency [3]
B1,tumor volume was reduced,showed anti-tumor efficacy in all three dosing regimens,–,–,–
B2,–,–,"promotes B cell differentiation, decrease in Bregs, increase in T cell effector function and modulation of suppressive myeloid cells",significantly reduced,showed anti-tumor potency

# Source: patent publication US11920136B2, “Transglutaminase-mediated conjugation” (Tallac Therapeutics, Inc., priority 2020, dated 2024)
